In PMC4278837, “A Cyclic Peptidic Serine Protease Inhibitor: Increasing Affinity by Increasing Peptide Flexibility” (PLoS ONE, 2014):

Experiments:
[1] = biological target: huPA-H99Y-K143A (human); assay: enzyme inhibition (steady state, chromogenic substrate S-2444); about 2 nM enzyme (purified or conditioned medium of transfected cells) pre-incubated 15 min with varied peptide in HBS (10 mM HEPES pH 7.4, 140 mM NaCl) with 0.1% BSA at 37°C; substrate about KM; fit for competitive inhibition; highest peptide concentration 400 µM
[2] = biological target: huPA-H99Y-R35A (human); assay: as above
[3] = biological target: huPA-H99Y (full length human urokinase-type plasminogen activator with H99Y) (human); assay: as above
[4] = biological target: huPA-H99Y-V41A (human); assay: as above
[5] = biological target: huPA-H99Y-Q192A (human); assay: as above
[6] = biological target: recombinant catalytic domain of huPA-H99Y (residues 159-411) (human) (UniProt P00749); assay: ITC; MicroCal ITC200; peptide injected into 5-50 µM huPA-H99Y catalytic domain; 20 mM sodium phosphate pH 7.4, 140 mM NaCl, 25°C; one-binding-site model
[7] = biological target: huPA-H99Y (full length human urokinase-type plasminogen activator with H99Y) (human); assay: SPR; Biacore T200; uPA variant amine-coupled to a CM5 chip (about 500 RU); peptides injected in HBS with 0.1% BSA, 30 µL/min, 25°C, pH 7.4; 1:1 kinetic fit; KD = koff/kon

Mupain-1 D9A (peptide)
Ki [1]: 8.74 µM | Ki [2]: 2.68 µM | Ki [3]: 5.99 µM | Ki [4]: 7.2 µM | Ki [5]: 4.85 µM | Kd [6]: 1.17 µM | dH [6]: -9.06 kcal/mol | stoichiometry N [6]: 1.03 | Kd [7]: 1.41 µM | koff [7]: 0.366 s⁻¹ | kon [7]: 260000 M⁻¹ s⁻¹

Mupain-1 L8A (peptide)
Ki [3]: 19.1 µM

Mupain-1 P2A (peptide)
Ki [3]: > 1000 µM

Mupain-1 R6A (peptide)
Ki [3]: > 1000 µM

Mupain-1 S5A (peptide)
Ki [3]: > 1000 µM

Mupain-1 Y4A (peptide)
Ki [3]: > 1000 µM

Mupain-1 Y7A (peptide)
Ki [3]: 44 µM

mupain-1 (peptide)
Ki [1]: 56.6 µM | Ki [2]: 39.5 µM | Ki [4]: 32.4 µM | Ki [5]: 33.2 µM | Kd [6]: 5.04 µM | dH [6]: -8.72 kcal/mol | stoichiometry N [6]: 1.09 | Kd [7]: 14.1 µM | koff [7]: 0.802 s⁻¹ | kon [7]: 56900 M⁻¹ s⁻¹
